Experimental data reported in IntAct's records for PubMed 16477026.

B1: Effector protein HopAB2 (Pseudomonas syringae pv. tomato (strain DC3000)), Q8RSY1 (parent)
chain: MAGINRAGPSGAYFVGHTDPEPVSGQAHGSGSGASSSNSPQVQPRPSNTPPSNAPAPPPTGRERLSRSTALSRQTREWLEQGMPTAEDASVRRRPQVTADAATPRAEARRTPEATADASAPRRGAVAHANSIVQQLVSEGADISHTRNMLRNAMNGDAVAFSRVEQNIFRQHFPNMPMHGISRDSELAIELRGALRRAVHQQAASAPVRSPTPTPASPAASSSGSSQRSLFGRFARLMAPNQGRSSNTAASQTPVDRSPPRVNQRPIRVDRAAMRNRGNDEADAALRGLVQQGVNLEHLRTALERHVMQRLPIPLDIGSALQNVGINPSIDLGESLVQHPLLNLNVALNRMLGLRPSAERAPRPAVPVAPATASRRPDGTRATRLRVMPEREDYENNVAYGVRLLNLNPGVGVRQAVAAFVTDRAERPAVVANIRAALDPIASQFSQLRTISKADAESEELGFKDAADHHTDDVTHCLFGGELSLSNPDQQVIGLAGNPTDTSQPYSQEGNKDLAFMDMKKLAQFLAGKPEHPMTRETLNAENIAKYAFRIVP

Variants of: B1
Settings: with rs27a_sollc UBI3, P62980

Row | Variant | effect of a mutation on the interaction
1 | K512R;K529R | decreasing interaction strength
